Measured values as given in US20200085917A1.
Values belong to the substance of their own block, whether it stands above or below them.

Columns and labels:
[1] = target: T1, Nipsnap1_IPI:IPI00115824.1 (mouse) (UniProt O55125); assay: GST pull-down, LC-MS/MS
T1 sequence (looked up): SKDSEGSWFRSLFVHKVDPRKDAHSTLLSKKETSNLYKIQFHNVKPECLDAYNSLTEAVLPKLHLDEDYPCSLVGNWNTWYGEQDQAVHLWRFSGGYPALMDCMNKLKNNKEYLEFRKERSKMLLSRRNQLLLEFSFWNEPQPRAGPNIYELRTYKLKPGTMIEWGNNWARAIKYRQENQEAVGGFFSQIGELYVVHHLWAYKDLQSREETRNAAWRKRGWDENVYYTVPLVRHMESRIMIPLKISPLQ

[2] = target: mt-Co2_IPI:IPI00131176.1 (mouse) (UniProt P00405); assay: GST pull-down, LC-MS/MS
Sequence of mt-Co2_IPI:IPI00131176.1 (mouse) (P00405 whole entry): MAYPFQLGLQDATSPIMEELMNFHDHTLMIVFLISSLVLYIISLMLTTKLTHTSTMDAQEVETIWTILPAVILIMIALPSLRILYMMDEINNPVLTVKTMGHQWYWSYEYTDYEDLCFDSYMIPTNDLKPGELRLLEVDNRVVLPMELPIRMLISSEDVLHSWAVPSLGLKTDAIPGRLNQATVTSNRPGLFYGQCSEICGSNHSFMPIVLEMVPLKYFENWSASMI

[3] = target: Slc1a2_IPI:IPI00230289.1 (mouse) (UniProt P43006); assay: GST pull-down, LC-MS/MS
Sequence of Slc1a2_IPI:IPI00230289.1 (mouse) (P43006 whole entry): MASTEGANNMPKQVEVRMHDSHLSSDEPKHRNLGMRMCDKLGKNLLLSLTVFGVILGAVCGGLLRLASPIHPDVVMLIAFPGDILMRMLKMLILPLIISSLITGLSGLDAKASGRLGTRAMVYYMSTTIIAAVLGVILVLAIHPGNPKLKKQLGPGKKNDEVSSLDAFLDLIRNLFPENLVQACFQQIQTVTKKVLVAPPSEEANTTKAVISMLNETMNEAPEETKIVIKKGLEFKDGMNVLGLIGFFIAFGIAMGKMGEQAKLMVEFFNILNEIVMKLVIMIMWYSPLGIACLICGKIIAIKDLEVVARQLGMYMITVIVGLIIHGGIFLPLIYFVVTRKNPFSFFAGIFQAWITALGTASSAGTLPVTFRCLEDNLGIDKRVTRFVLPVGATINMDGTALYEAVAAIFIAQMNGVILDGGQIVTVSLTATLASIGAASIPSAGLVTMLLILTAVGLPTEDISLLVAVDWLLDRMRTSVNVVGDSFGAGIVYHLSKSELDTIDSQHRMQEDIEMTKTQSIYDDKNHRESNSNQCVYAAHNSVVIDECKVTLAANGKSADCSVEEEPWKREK

[4] = target: T2, Syngr3_IPI:IPI00331579.1 (mouse) (UniProt Q8R191); assay: GST pull-down, LC-MS/MS
T2 sequence (looked up): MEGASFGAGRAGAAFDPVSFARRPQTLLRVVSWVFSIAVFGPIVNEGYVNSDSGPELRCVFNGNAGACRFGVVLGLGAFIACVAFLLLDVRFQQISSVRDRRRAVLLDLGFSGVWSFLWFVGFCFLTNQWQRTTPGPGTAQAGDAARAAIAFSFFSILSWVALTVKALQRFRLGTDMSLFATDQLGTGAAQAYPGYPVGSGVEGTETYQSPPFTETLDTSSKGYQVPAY

[5] = target: Tomm20_IPI:IPI00120715.1 (mouse) (UniProt Q9DCC8); assay: GST pull-down, LC-MS/MS
Sequence of Tomm20_IPI:IPI00120715.1 (mouse) (Q9DCC8 whole entry): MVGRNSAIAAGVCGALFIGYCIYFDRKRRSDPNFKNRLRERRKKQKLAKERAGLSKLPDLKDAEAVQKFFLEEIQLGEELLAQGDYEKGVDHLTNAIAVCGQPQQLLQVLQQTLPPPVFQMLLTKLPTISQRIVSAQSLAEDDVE

[6] = target: T3, Hmgcl_IPI:IPI00127625.1 (mouse) (UniProt P38060); assay: GST pull-down, LC-MS/MS
T3 sequence (looked up): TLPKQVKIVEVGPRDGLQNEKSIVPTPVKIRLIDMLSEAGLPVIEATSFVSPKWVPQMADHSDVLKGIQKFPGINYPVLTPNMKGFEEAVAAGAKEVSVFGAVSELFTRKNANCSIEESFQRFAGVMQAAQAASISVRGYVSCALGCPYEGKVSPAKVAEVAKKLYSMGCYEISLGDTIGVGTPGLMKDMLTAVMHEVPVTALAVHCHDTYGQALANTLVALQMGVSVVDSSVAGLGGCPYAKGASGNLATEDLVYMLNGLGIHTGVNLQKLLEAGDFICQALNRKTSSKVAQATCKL

[7] = target: Loh12cr1_IPI:IPI00457620.2 (mouse); assay: GST pull-down, LC-MS/MS
[8] = target: T4, Gbas_IPI:IPI00115827.1 (mouse) (UniProt O55126); assay: GST pull-down, LC-MS/MS
T4 sequence (looked up): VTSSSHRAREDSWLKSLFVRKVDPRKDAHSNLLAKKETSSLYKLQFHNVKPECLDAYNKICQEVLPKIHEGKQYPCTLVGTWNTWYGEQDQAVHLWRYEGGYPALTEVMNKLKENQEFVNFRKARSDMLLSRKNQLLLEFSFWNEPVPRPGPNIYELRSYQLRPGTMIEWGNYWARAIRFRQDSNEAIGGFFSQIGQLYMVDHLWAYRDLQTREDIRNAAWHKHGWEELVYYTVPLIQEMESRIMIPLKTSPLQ

[9] = target: T5, Cplx2_IPI:IPI00111501.1 (mouse) (UniProt P84086); assay: GST pull-down, LC-MS/MS
T5 sequence (looked up): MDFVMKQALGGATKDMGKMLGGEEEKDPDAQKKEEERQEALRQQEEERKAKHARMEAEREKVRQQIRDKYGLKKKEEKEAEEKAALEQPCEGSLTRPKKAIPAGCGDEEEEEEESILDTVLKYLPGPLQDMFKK

[10] = target: Vsnl1_IPI:IPI00230418.5 (mouse) (UniProt P62761); assay: GST pull-down, LC-MS/MS
Sequence of Vsnl1_IPI:IPI00230418.5 (mouse) (P62761 2-191 limits assumed): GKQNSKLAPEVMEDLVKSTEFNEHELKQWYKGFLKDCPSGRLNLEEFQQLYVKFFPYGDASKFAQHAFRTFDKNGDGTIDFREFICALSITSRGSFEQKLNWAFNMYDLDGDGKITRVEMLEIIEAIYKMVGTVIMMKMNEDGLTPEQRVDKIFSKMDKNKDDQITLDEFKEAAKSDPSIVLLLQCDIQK

[11] = target: Slc25a1_IPI:IPI00276926.3 (mouse) (UniProt Q8JZU2); assay: GST pull-down, LC-MS/MS
Sequence of Slc25a1_IPI:IPI00276926.3 (mouse) (Q8JZU2 14-311 limits assumed): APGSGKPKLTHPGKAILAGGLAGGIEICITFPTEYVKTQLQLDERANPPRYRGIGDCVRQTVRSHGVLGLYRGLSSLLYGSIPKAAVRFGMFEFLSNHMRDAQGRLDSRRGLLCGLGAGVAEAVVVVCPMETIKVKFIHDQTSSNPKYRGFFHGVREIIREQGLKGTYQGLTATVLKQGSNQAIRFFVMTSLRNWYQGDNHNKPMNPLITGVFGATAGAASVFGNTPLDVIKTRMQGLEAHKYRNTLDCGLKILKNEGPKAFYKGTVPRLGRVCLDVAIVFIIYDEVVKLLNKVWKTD

[12] = target: Ociad2_IPI:IPI00112139.1 (mouse) (UniProt Q9D8W7); assay: GST pull-down, LC-MS/MS
Sequence of Ociad2_IPI:IPI00112139.1 (mouse) (Q9D8W7 whole entry): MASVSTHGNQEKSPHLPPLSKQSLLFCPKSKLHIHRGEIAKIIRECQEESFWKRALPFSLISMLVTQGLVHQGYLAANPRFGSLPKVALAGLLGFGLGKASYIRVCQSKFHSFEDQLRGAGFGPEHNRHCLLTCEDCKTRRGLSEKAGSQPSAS

[13] = target: Rdh14_IPI:IPI00112377.1 (mouse) (UniProt Q9ERI6); assay: GST pull-down, LC-MS/MS
Sequence of Rdh14_IPI:IPI00112377.1 (mouse) (Q9ERI6 whole entry): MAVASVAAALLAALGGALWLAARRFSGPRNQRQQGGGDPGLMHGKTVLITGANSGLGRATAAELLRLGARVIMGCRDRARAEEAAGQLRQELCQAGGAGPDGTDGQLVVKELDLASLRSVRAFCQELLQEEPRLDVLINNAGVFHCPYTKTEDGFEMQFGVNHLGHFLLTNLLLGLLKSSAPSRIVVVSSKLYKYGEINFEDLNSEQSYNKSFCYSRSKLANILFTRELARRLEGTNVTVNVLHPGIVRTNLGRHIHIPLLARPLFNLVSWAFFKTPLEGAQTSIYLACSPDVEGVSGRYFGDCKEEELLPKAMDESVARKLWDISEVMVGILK

[14] = target: Fabp5_IPI:IPI00114162.3 (mouse) (UniProt Q05816); assay: GST pull-down, LC-MS/MS
Sequence of Fabp5_IPI:IPI00114162.3 (mouse) (Q05816 2-135 limits assumed): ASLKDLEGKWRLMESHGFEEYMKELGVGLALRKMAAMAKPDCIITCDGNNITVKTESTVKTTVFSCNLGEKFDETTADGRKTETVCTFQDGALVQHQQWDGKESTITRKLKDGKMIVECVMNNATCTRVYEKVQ

[15] = target: Ppdpf_IPI:IPI00133078.1 (mouse) (UniProt Q9CR37); assay: GST pull-down, LC-MS/MS
Sequence of Ppdpf_IPI:IPI00133078.1 (mouse) (Q9CR37 whole entry): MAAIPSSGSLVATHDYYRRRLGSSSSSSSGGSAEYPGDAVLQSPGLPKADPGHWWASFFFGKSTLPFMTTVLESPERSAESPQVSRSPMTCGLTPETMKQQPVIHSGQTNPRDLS

[16] = target: Isca2_IPI:IPI00120671.2 (mouse) (UniProt Q9DCB8); assay: GST pull-down, LC-MS/MS
Sequence of Isca2_IPI:IPI00120671.2 (mouse) (Q9DCB8 9-154 limits assumed): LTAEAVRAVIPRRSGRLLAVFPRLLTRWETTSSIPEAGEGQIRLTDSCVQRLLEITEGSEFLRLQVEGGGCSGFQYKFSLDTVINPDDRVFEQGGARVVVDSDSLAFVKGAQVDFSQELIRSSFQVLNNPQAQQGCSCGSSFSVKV

[17] = target: Hagh_IPI:IPI00115866.2 (mouse) (UniProt Q99KB8); assay: GST pull-down, LC-MS/MS
[18] = target: Cisd3_IPI:IPI00345740.4 (mouse) (UniProt B1AR13); assay: GST pull-down, LC-MS/MS
Sequence of Cisd3_IPI:IPI00345740.4 (mouse) (B1AR13 whole entry): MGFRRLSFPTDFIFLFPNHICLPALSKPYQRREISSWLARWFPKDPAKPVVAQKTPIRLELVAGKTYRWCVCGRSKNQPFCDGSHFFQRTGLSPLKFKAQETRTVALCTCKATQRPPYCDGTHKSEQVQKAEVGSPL

[19] = target: Mpst_IPI:IPI00604945.2 (mouse) (UniProt Q99J99); assay: GST pull-down, LC-MS/MS
Sequence of Mpst_IPI:IPI00604945.2 (mouse) (Q99J99 2-297 limits assumed): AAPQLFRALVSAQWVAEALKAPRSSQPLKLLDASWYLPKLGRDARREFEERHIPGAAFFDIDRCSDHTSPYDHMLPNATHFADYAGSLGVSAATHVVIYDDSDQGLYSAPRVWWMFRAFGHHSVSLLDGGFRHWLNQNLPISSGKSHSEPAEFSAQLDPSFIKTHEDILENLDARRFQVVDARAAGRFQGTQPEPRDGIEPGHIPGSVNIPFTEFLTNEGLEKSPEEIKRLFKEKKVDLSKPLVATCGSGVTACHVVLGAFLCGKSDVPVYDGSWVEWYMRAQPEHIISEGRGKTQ

[20] = target: Etfa_IPI:IPI00116753.4 (mouse) (UniProt Q99LC5); assay: GST pull-down, LC-MS/MS
Sequence of Etfa_IPI:IPI00116753.4 (mouse) (Q99LC5 20-333 limits assumed): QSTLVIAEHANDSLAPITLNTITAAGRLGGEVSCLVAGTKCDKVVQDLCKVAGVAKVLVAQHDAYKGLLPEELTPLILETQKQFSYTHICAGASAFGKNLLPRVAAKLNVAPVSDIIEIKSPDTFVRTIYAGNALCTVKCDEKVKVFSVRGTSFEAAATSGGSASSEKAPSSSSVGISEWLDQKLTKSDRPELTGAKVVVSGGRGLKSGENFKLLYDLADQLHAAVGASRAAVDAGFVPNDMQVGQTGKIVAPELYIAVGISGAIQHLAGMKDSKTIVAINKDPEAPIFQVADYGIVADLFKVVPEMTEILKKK

[21] = target: Acadsb_IPI:IPI00119842.1 (mouse) (UniProt Q9DBL1); assay: GST pull-down, LC-MS/MS
[22] = target: TIM23 complex (mitochondrial inner membrane translocase, mouse forebrain mitochondria) (mouse) (UniProt Q9WTQ8); assay: cell-based or functional assay

Sequence of GST-Httex1-23Q (P08515 1-218, tags or fused parts left off): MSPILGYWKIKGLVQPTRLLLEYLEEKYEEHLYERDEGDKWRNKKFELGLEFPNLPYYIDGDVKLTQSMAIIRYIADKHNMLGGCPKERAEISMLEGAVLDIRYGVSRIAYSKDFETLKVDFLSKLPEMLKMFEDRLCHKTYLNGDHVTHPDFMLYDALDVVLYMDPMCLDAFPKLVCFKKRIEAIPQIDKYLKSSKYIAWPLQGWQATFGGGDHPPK
Sequence of GST-Httex1-97Q (P08515 1-218, tags or fused parts left off): as above

Substance: GST-Httex1-23Q (from UniProt P08515 1-218; P42858 1-88)
- No. of total peptides [1]: 1 peptides
- No. of unique peptides [1]: 1 peptides
- No. of total peptides [2]: 1 peptides
- No. of unique peptides [2]: 1 peptides
- No. of total peptides [3]: 1 peptides
- No. of unique peptides [3]: 1 peptides
- No. of total peptides [4]: 1 peptides
- No. of unique peptides [4]: 1 peptides
- No. of total peptides [5]: 1 peptides
- No. of unique peptides [5]: 1 peptides
- No. of total peptides [6]: 1 peptides
- No. of unique peptides [6]: 1 peptides
- No. of total peptides [7]: 1 peptides
- No. of unique peptides [7]: 1 peptides
- No. of total peptides [8]: 2 peptides
- No. of unique peptides [8]: 2 peptides
- No. of total peptides [9]: 1 peptides
- No. of unique peptides [9]: 1 peptides
- No. of total peptides [10]: 1 peptides
- No. of unique peptides [10]: 1 peptides
- No. of total peptides [11]: 1 peptides
- No. of unique peptides [11]: 1 peptides

- No. of total peptides [1]: 1 peptides
- No. of unique peptides [1]: 1 peptides
- No. of total peptides [12]: 3 peptides
- No. of unique peptides [12]: 3 peptides
- No. of total peptides [2]: 4 peptides
- No. of unique peptides [2]: 3 peptides
- No. of total peptides [13]: 1 peptides
- No. of unique peptides [13]: 1 peptides
- No. of total peptides [3]: 1 peptides
- No. of unique peptides [3]: 1 peptides
- No. of total peptides [14]: 1 peptides
- No. of unique peptides [14]: 1 peptides
- No. of total peptides [4]: 2 peptides
- No. of unique peptides [4]: 2 peptides
- No. of total peptides [5]: 1 peptides
- No. of unique peptides [5]: 1 peptides
- No. of total peptides [15]: 4 peptides
- No. of unique peptides [15]: 4 peptides
- No. of total peptides [16]: 3 peptides
- No. of unique peptides [16]: 3 peptides
- No. of total peptides [17]: 2 peptides
- No. of unique peptides [17]: 2 peptides
- No. of total peptides [6]: 1 peptides
- No. of unique peptides [6]: 1 peptides
- No. of total peptides [7]: 1 peptides
- No. of unique peptides [7]: 1 peptides
- No. of total peptides [18]: 1 peptides
- No. of unique peptides [18]: 1 peptides
- No. of total peptides [8]: 5 peptides
- No. of unique peptides [8]: 3 peptides
- No. of total peptides [19]: 4 peptides
- No. of unique peptides [19]: 4 peptides
- No. of total peptides [9]: 6 peptides
- No. of unique peptides [9]: 5 peptides
- No. of total peptides [20]: 4 peptides
- No. of unique peptides [20]: 3 peptides
- No. of total peptides [10]: 2 peptides
- No. of unique peptides [10]: 2 peptides
- No. of total peptides [11]: 2 peptides
- No. of unique peptides [11]: 2 peptides
- No. of total peptides [21]: 2 peptides
- No. of unique peptides [21]: 2 peptides
- reduction of pOTC import into wild-type mouse forebrain mitochondria after incubation with 3 µM GST-Httex1-97Q, compared to control GST [22]: 50%
- reduction of pOTC import into wild-type mouse forebrain mitochondria after incubation with 10 µM GST-Httex1-97Q, compared to control GST [22]: 73%
Substance: GST-Httex1-97Q (from UniProt P08515 1-218; P42858 1-88)
